Reference: article PMC7000413, “CDX-301: a novel medical countermeasure for hematopoietic acute radiation syndrome in mice” (Scientific Reports, 2020)

Target: the molecule itself
Experiment: SEC; size exclusion chromatography of purified CDX-301; apparent molecular weight approximately 44,000 Daltons; conditions not given

B1: CDX-301, soluble recombinant human Fms-related tyrosine kinase 3 ligand (Flt3L) (ligand)
chain: TQDCSFQHSPISSDFAVKIRELSDYLLQDYPVTVASNLQDEELCGGLWRLVLAQRWMERLKTVAGSKMQGLLERVNTEIHFVTKCAFQPPPSCLRFVQTNISRLLQETSEQLVALKPWITRQNFSRCLELQCQPDSSTLPPPWSPRPLEATAP
modifications: glycoprotein with 2 potential N-linked (N100, N123) and 5 potential O-linked (S136, S137, T138, S144, T151) glycosylation sites; 3 intramolecular disulfide bonds
notes: human Flt3 ligand, the 153 N-terminal amino acids of the extracellular domain; 3 C-terminal residues of the extracellular domain, the transmembrane domain and the cytoplasmic domain eliminated; mature, secreted protein of 153 amino acids. numbers count on: the mature protein; Non-covalent homodimer; also called rhuFlt3L; Flt3 Ligand; source: manufactured under cGMPs by Celldex Therapeutics
- stoichiometry N: 2
